Target: CXCL4 (platelet factor 4, PF4) (human)
Experiment: AUC

- stoichiometry N: 4
Substance: CXCL4 (platelet factor 4, PF4) (natural protein)

From publication doi:10.1101/2022.07.10.499282
